# Experimental data reported in US20030175888.
# T1: LnmP PCP (holo-form)
# T1 chain: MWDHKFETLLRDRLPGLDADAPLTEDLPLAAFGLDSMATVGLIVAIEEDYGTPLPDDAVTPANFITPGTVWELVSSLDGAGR
# B1: LnmG (protein)
# chain: MVALVFPGQGSQRKGMGADLFARFPDLTRQADTVLGHSVEELCRSSGDGRLDRTEYAQPALFVVSALSYLARDPGLPQPTLLAGHSLGEYGALFAAGCFDFATGVRLVRERGALMGRAQGGGMLAVLGVDGDEVQALLAGTGARQVDVANYNTPTQTVLSGPLDELRMVSAALGQRPGVRCVPVRVSAAFHSRHMRPAAQEFATFLTGFSFADPHRTVISSVTARPYGAGQVAELLSRQIESPVRWSETMAYLRERGTTELEEMGPGKVLTGLWKQGRADGAKARAVAPAPVAVVAGVPAAAAARAPASPAPVAARAATAAPARPSDPAPPAPRTAPSPASPVPPASVSRGQRAEELGSAEFRQDYGIRYAYLAGAMFRGIASAELVIRMGRAGLMGFFGAGGLGLDKVESALVRIKDALGPDGRYGMNLLHSIDDPAYEHAVVDLCLKHGVHDVEAAGFTQLTPAVVQFRFSGAHRDAAGRAVAVRRVLAKVSRPEVAAAFMAPAPAAILRRLTADGRLTPQEAEIAAELPVGQDICVEADSGGHTDGGAALTLLPSMIRHRDAAMARHGYGRRIRIGAAGGIGAPEAVAAAFVLGADFVLTGSVNQCSPEAGTSDAVKDILAGLDVQDTAYAPAGDMFEIGARVQVVRKGTLFAARGNKLYQLYRSHDSWESIDAGTRRSVEETYFKRPFAEVWEETRAYHLGRGRDAEIEKADRLPKHRMALAFRWYFARSVRWGLEGEPTQKVNYQIQCGPAIGAFNHVVRGTGLEDWRHRHVDLIAEHLMTGAADVLARR
# Assays:
# LnmP PCP (holo-form) = molecular target: T1, LnmP PCP (holo-form)
protein,measurement,setting,value
B1,"loading of the [2-14C]malonyl group onto the tridomain protein (9% SDS-PAGE and phosphor imaging, 2 to 60 min)",holo-LnmJ-(DH-ACP-KR),LnmG efficiently loaded the malonyl group to holo-LnmJ-(DH-ACP-KR) (lanes 3-6)
same,"loading of the [2-14C]malonyl group onto the holo-ACP (SDS-PAGE and phosphor imaging, 5 min)",LnmI-ACP3 (holo-form),"six of the seven ACPs were efficiently loaded with the malonyl group (FIG. 13C, lanes 2-4 and 6-8)"
same,loading of the [2-14C]malonyl group onto the tridomain protein (9% SDS-PAGE and phosphor imaging),apo-LnmJ-(DH-ACP-KR),no loading was observed with the apo-LnmJ-(DH-ACP-KR) protein (lane 2)
same,"loading of the [2-14C]malonyl group onto the holo-ACP (SDS-PAGE and phosphor imaging, 5 min)",LnmJ-ACP6-2 (holo-form),"six of the seven ACPs were efficiently loaded with the malonyl group (FIG. 13C, lanes 2-4 and 6-8)"
same,malonyl loading of the two ACPs of PKS module 6 in vitro,LnmJ-ACP6-2 (holo-form),LnmG prefers ACP6-2 in vitro
same,"loading of the [2-14C]malonyl group onto the holo-ACP (SDS-PAGE and phosphor imaging, 5 min)",LnmJ-ACP5 (holo-form),"six of the seven ACPs were efficiently loaded with the malonyl group (FIG. 13C, lanes 2-4 and 6-8)"
same,"loading of the [2-14C]malonyl group onto the holo-ACP (SDS-PAGE and phosphor imaging, 5 min)",LnmJ-ACP7 (holo-form),"six of the seven ACPs were efficiently loaded with the malonyl group (FIG. 13C, lanes 2-4 and 6-8)"
same,"loading of the [2-14C]malonyl group onto the holo-PCP (SDS-PAGE and phosphor imaging, 5 min)",LnmP PCP (holo-form),"no loading was observed for the LnmP PCP (FIG. 13C, lane 9)"
same,"loading of the [2-14C]malonyl group onto the holo-ACP (SDS-PAGE and phosphor imaging, 5 min)",LnmJ-ACP4 (holo-form),"six of the seven ACPs were efficiently loaded with the malonyl group (FIG. 13C, lanes 2-4 and 6-8)"
same,"loading of the [2-14C]malonyl group onto the holo-ACP (SDS-PAGE and phosphor imaging, 5 min)",LnmJ-ACP6-1 (holo-form),"with ACP6-1 being loaded less efficiently (FIG. 13C, lane 5)"
same,"loading of the [2-14C]malonyl group onto the holo-ACP (SDS-PAGE and phosphor imaging, 5 min)",LnmJ-ACP8 (holo-form),"six of the seven ACPs were efficiently loaded with the malonyl group (FIG. 13C, lanes 2-4 and 6-8)"
